Measurements taken from a protein production outcome set (Wang et al. 2014).

Assay: label from the status in PepcDB records

Sequence	protein production
MTTARPAKARNEGQWALGHREPLNANEELKKAGNPLDVRERIENIYAKQGFDSIDKTDLRGRFRWWGLYTQREQGYDGTWTGDDNIDKLEAKYFMMRVRCDGGALSAAALRTLGQISTEFARDTADISDRQNVQYHWIEVENVPEIWRRLDDVGLQTTEACGDCPRVVLGSPLAGESLDEVLDPTWAIEEIVRRYIGKPDFADLPRKYKTAISGLQDVAHEINDVAFIGVNHPEHGPGLDLWVGGGLSTNPMLAQRVGAWVPLGEVPEVWAAVTSVFRDYGYRRLRAKARLKFLIKDWGIAKFREVLETEYLKRPLIDGPAPEPVKHPIDHVGVQRLKNGLNAVGVAPIAGRVSGTILTAVADLMARAGSDRIRFTPYQKLVILDIPDALLDDLIAGLDALGLQSRPSHWRRNLMACSGIEFCKLSFAETRVRAQHLVPELERRLEDINSQLDVPITVNINGCPNSCARIQIADIGFKGQMIDDGHGGSVEGFQVHLGGHLGLDAGFGRKLRQHKVTSDELGDYIDRVVRNFVKHRSEGERFAQWVIRAEEDDLR	not failed
MTTDTGELVRTNQGTSSEVSSETGTAVQTLSVLYGSQTGNAEFLASKIVDKANGQGYAAELMSLDMLTPQEAARKDRLLIVTATHDNGHMPDNAQPFWDQLQSAGSDLFKDVPFAVLAIGDSMYEDFCKAGSDLDERLGKLGGKRILDRLDCDVDYDLTSGKWIRGMLETFKTVVPKKRDNNPEDSTVPGANPAEQPKGTRREPDTATVVEARLLSAPESEKEVWHYELEVSGDSRNYRPGDSLAVIPTNNIELVEDLLGFLGLAGSEVFGEDGKTVRETLQNDYELRLPHLGIVAWLVENLAPDHPVRNLVESGDRNALEDWLWGRDMLDVLQETRTTDVDPGEFLSMLRPLQHRSYSIASSPLADGDRVHLTVSTVQYETAGRRHSGACSGFLQSAAQTKTTIKVFPLPAHEFHLPHDNSADVIMVGPGVGVAPFRGFLRDREVSQARGRNWLFFGDRHEKPSWLYQEEMEELQSNGVLNRLSVAFSRDQQGKVYVQDRIREEGDGIFAWLSGGASVYVCGGKQIAPDIDEALLAVLRSHGAMTPEKAHDYLQSLKSEGRYVKDVY	failed
MTTIDIIILIIIGAGVVAGFMKGFIRQLASILGLVVGLLAAKALYATLAEKLCPAVTDSMTVAQVLAFIVIWIAVPLIFTLVASLLTKAMEAISLGWLNRWLGSGLGALKFLLLTSLVICVIEFIDSDNKLISATKKSESLLYYPMETFAGIFFPAAKNITQQYILDNKDATRRTQ	failed
MTTKPVLVIGGTGKTGRRVVRLLRERGVPARPASRSGEVRFDWLDESTWGPALDGASGVYIVQNDGDPRTRALVRTAVASGVQRLALLSARGVDTPGYYGEDPATSEAFLEGEAAVRESGVDWTVLRPGWFAQNFDEGFFNEGVLAGELRLPAGDGAASWIDVEDIAAVAVAALTEDGHAGRTYELSGPAPLPLAEVLSVIEAAAGRKVRYTPLTTEEFIAELGAQGIPAEEAGLWAAALYPVERGFESKVSDGVRQALGRAPRTFAEYAEAAVAEGAWRD	failed
MTTLEAFAKARSEGRAALIPYLTAGFPSREGFLQAVEEVLPYADLLEIGLPYSDPLGDGPVIQRASELALRKGMSVQGALELVREVRALTEKPLFLMTYLNPVLAWGPERFFGLFKQAGATGVILPDLPPDEDPGLVRLAQEIGLETVFLLAPTSTDARIATVVRHATGFVYAVSVTGVTGMRERLPEEVKDLVRRIKARTALPVAVGFGVSGKATAAQAAVADGVVVGSALVRALEEGRSLAPLLQEIRQGLQRLEANPGLKESSKKPLP	not failed
MTTLSTKQKQFLKGLAHHLNPVVMLGGNGLTEGVLAEIENALNHHELIKVKVAGADRETKQLIINAIVRETKAAQVQTIGHILVLYRPSEEAKIQLPRK	not failed
MTTLVLRAKRWLYLLHRWMGVGLCLLFVLWFASGVVMMYVGYPNLTPAERLAHLPGLDAAQVRLGPAQALRAAGLEQAAEIRLAASRAGQPFYAVVPLAGGRTLRVDAASGQLAGRATPAQARASALAYFGARHAAREGGLVSEDAHTHTRTLDEHRPLYVFEMDDPARTRLYVSSSTGEVVRDAPRLERGWNYVGAWLHWLYPLRGAYWHDIVVWLSVLGVALTVSGTVVGLWRWRFARPYASGSRSPYRERFMRWHHIAGLLFAATTLTWIFSGLMSMNPWQVFGTRATQLDRAAYRGGPLQADNLPAGPAVAMPARKLVWTRVAGQTLLQVYGAAGAPALRTADGAAPRTLAPATLGVALGRLLPSAAPPRIEVLDGYDSYYYARAPHTMLGHVEKPLPVWRVVYDDPRGTWLHVDPRSGEILGSLDRPRRVSRWLFAFLHSWDWPPLLQRRPAWDAVLIVLSLGGLLLSGAGVVIGWRRVGRKLR	failed
